We go through 22 sequences from the DeepSol protein solubility set.

A short description of the series: soluble on expression in E. coli; label from the status in PepcDB or PDB records.
In the case of “MGSDKIHHHHHHMTFEPYPFERLRALLKEITPKKRGLDLGIGEPQFETPKFIQDALKNHTHSLNIYPKSAFEESLRAAQRGFFKRRFKIELKENELISTLGSREVLFNFPSFVLFDYQNPTIAYPNPFYQIYEGAAKFIKAKSLLMPLTKENDFTPSLNEKELQEVDLVILNSPNNPTGRTLSLEELISWVKLALKHDFILINDECYSEIYENTPPPSLLEACMLAGNEAFKNVLVIHSLSKRSSAPGLRSGFIAGDSRLLEKYKAFRAYLGYTSANAIQKASEAAWLDDRHAEFFRNIYANNLKLARKIFKNTLIYPYSFYVYLPVQNGENFAKTLYQNEGIITLPALYLGRNRIGADYVRLALVYDTPLLEKPLEIIETYRENHA”, the “soluble on expression in E. coli” value is on record as “not soluble”.
As to “MQEQAQQFIFKVTDKAVEEIKKVAQENNIENPILRIRVVPGGCSGFQYAMGFDDTVEEGDHVFEYDGVKVVIDPFSMPYVNGAELDYVVDFMGGGFTIRNPNATGSCGCGSSFSCGLEHHHHHH”, the “soluble on expression in E. coli” value is listed as “soluble”.
For “MGSDKIHHHHHHMTEVIRDIPFLATDRVEALLDIERHLIVEQSTIERWFRGQWQRTPPPFYASVDLRNAGFKLAPVDTNLFSAGFNNLNPEFSALYVSAIQHYLNQYHPGLERVLLIPENHTRNLFYLESVARLRELLELAGLDVRVGSLILEDRTVYDLPSGGQLLLEPLCRDDGRLSTRGFDAQLILLNNDLSGGVPEILAGLEQPILPPLAAGWRNRRKSQHFTHYRAVAQELAEVIGIDPWLIDPVFRRCQGIDFMRSEGRECLVANVDAVLEITRERYAHYGIHQRPFVIVKADAGTYGMGIMTAYSGEEFLDLNRKERTRMAKSKEGLPVSDVFIQEGVYTFEQTAQEAVAEPVVYMIGQQVLGGFYRVHTERGRDENLNAPGAHFEPMAFGQTCVLPCRKSPPDAPANRYYAYGVIARLTLVAAAREMADWRRQGTLETGQ” the value was “not soluble”; for “MGAAKASLGRIFPESSILFLCDMQEKLRDRILYFPQIVSMAARMLKVAQMLEIPVLLTEHYPQGLGPTVPELGAQGLRTMSKTSFSMVPPLQQELDKLPQLQSVLLRGIETQGCILHTALDLLDRGLQVHVAVDACSSQSEMNRLVALARMQQSGVFLSTSEVLILQLVKDAAHPQFKEIQKILKEPVTDIGLLGFFQGKKNSLLPNSRT”, “not soluble”.
“MGSDKIHHHHHHVAKAELMQLPASQMVIGLTVKLPLGWTQHPFFINRIKLTSQAQIELIRGLELTFVYVLSGHELLPEVIEEVEDKQADPMQVKAKPKKVLDSKAAVIKAMRVGQQRFLSNINESRSVFAQFAIEPDKAYREAATMVEGFVDHLQETDTPYLALVGSGEMDVSVTQHGISVAVLSLMIGHALELPKSDLRDLALGSLFHDFGKLKIPDNIRRKRSELTEPEQNYLKMHPNLGFDLLNACNLYPKSVLNIVLHHHEYIDGSGYPDHLTEKDIPLLTQIVSLANDYEGLLEQFTFSPQLALGTLFKSHAKKHAQNLIAALVKVLGIYPPGTLVSLSDGSIGKVMMTTREVKQPHVWSCNLGGGEANLRFLLEEDVTVSSVLRLEELTEGALKTLQADSPISFYFSALPDN”: the “soluble on expression in E. coli” value is “not soluble”.
For “MFKRVLIANRGEIAVRAIRACRELGLKTVAIYSEADKNSLHVELADEAICIGPPDPSKSYLDIPRIMSALEVSKADAVYPGYGFLSENPKFAEIVEKSGAKFIGPRSEVLAKIGDKVLAKKVAKEVGLPLVPGSDEPLEFSEAVKLASKIGYPVVIKAAAGGGGRGIRIIRDEKELREKFPLAKKEAESAFGDGRLYIEKYVINPKHIEFQVIADEHGNVYVLGERECSIQRRHQKLIEEAPSVSVSEEKRKEISEKVAEFCKRLGYTSAGTVEFLMDEEGNFYFMEMNGRIQVEHPVTEMVTGVDIVKLQLIAAMGEEIKLEKVETNGFAIEFRINAEDPVTFIPSPGQVEKLILPGGPGVRVDTHLYQGYTVPPYYDSLLAKIIVWGNTRQEAIARGKRALGELKIEGKGLKVNTEFHLRVLDQKEFIEGKHDITFVERIMV”, the “soluble on expression in E. coli” value was “soluble”.
In the case of “MRVDVVSRDIIKPSSPTPNHLKKFKLSLLEQLGPTIFGPMVFFYSANNSIKPTEQLQMLKKSLSETLTHFYPLAGRLKGNISIDCNDSGADFLEARVNSPLSNLLLEPSSDSLQQLIPTSVDSIETRTRLLLAQASFFECGSMSIGVCISHKLADATSIGLFMKSWAAISSRGSIKTIGAPVFDTVKIFPPGNFSETSPAPVVEPEIMMNQTLSKRFIFDSSSIQALQAKASSFEVNQPTRVEAVSALIWKSAMKATRTVSGTSKPSILANSVSLRSRVSPPFTKNSIGNLVSYFAAKAEEGINQTKLQTLVSKIRKAKQRFRDIHIPKLVGNPNATEIICSYQKEAGDMIASGDFDFYIFSSACRFGLYETDFGWGKPVWVGFPSVRQKNIVTLLDTKEAGGIEAWVNLNEQEMNLFEQDRELLQFASLNPSVIQPFLHVL”, the “soluble on expression in E. coli” value is “soluble”.
For “MGSDKIHHHHHHMNYKELNKIFKETLSLRWDPVAVRMMRPGEEKPAQGIEPTVPLRHCQSIITARRGNCLYMPPRSHACPDGTGVLGLVEMSPKLRSGDLYLLFKKMPNIETARQMISSRPEFKAGSYEATLLAPLEKAAFEPDVVVFTLWPEQAMWLCCAQTYATGERQDFKTSGFNSACADLIVQTMTSGEMNISFGCYGARASSEIDDFELYLAIPTALLEPIAQALLKLSQKSIPEERKKIYLHPVMDKVGSRRAQSQGEGARVELFVDTERCMGDGLCVDFCPSGVLAMVEAGDRKVAQALHPDACSACYTCVGQCPQQAIQLSYN” the value was “not soluble”; for “MGSDKIHHHHHHDEEPSDKGSTSPQEPVYTTFTDAGEVVVPGVLPANFTPRSVRVKGDTLFVANTNAADRSVLLLNLTTGELIGRIDSWVRKGVKETFNAEIGDMAVSDRYIFVGMYNSRINIFDRRTLQFVNAIGRSDGKWGDDIYSMTHCYGLRECGERLMVRDKNTIRGYWIYEAVTEPAFRVPWIGKVKVPEGVGYDYQARIHGMAEYDGRMYLTDWYNKSVQVFTPSKMEIVFGEETHITSDAVFKYDDIQPLGLLAYGGELLMSVQKSGKIQRYDPETGDLLGVLAEFPGKEIGRMEIARGMLYYIDLKAGKLMKAKGE”, “not soluble”.
“MSLRHVIREVRADLIASPVQTGFQDATRKVETVGMCVIRVNTDQGLTGIGVTYHEVGGEAIKEMIERYYGPKLIGRDPFETEEIWEELFHYARGVGRKGLSFCALSAVDIALWDLKGKIMDLPLYRLLGGNKKKVPVYASGGWTSYDDDALVAEALEMVRRGYKMIKLKVGVEGGRNIRRDTQRCRKVREAIGPDIGFMVDANNAFHSGDAVRLANEIREYDILFFEEPVFADDIPGLRRFRQGTDIPLGTGEHEYTRYGARDLILGEAVDYLQMDVTRCGGITEMLKVIALSQAWNLAFAPHAMEHIHMHLVSAAANGAFLERLFLFEDITAMVFKDAPVPEEGILTIPDKPGLGLELNSEFLREGHHHHHH”: the “soluble on expression in E. coli” value was “soluble”.
For the sequence “MNHRDKQIDSGSGSGENRRTYDCDICKRGFTNPQALGGHNNIHRRERERYPSSSSSSHSFPFSLPLPSQSPSSSTNFTNPPPYFPTIESYLHQGSQPPINPSHNTQYFGSSSSSRGGGRFAQGASHDLNLSLGLGSMNEDDDTHRSPPETGGSQPQDGDLDLDLRLGGHRHH”, the “soluble on expression in E. coli” value is listed as “soluble”.
On to “MQNTAHIIGAGISGLSAAVRLANAGFKVAVHEATHQAGGRCRSYFDGATNLTIDNGNHLLLSGNSHARAYARSIGTEAGLVGPESAQFPFVDIKTGQRWQIDLGTGRLPTWVLDESRRVPDTGLTDYLKLAPLIWASEETLVGKSIPTEGVLYQRLVQPLLLAALNVDPPEGSAGLAGAIVRETLLAGGQACRPLIARDGLSAVLIEPAVKFLQERGHSVQLGHELRAFVTSDGKAGALNFGGEDVIQLADGDVVVMAVPPRAAASLLPGLKTPTEFRAIVNAHFRFEPPPGSPPILGVIGGIVEWLFAFPNRLSVTISNGDRLVDMPREELAQAIWNDVCEAGGVSGELPPWQIVRERRATFAATPAQNALRPGPVTALKNLFLAGDWTATGLPATIEGSVRSGDRAADLVLAAQRPLEHHHHHH”, for which the “soluble on expression in E. coli” value was “not soluble”.
The result for “MYTIQANPSGTRSIEVSSENLKTIEKYALFRHLIDSTGIVDEPVLDKLKLNIRSLIASQEEDSKELLDLCIDVIYHNNMKAFGLQQLIKLYLTWLSTQDAEEEEE” reads “soluble”; that for “MSLGLINVLIADDQTLMREGLKTIIDLEDDMNVTGLAKNGKEVLDQIPCLLPHVILMDIQMPIMNGIECLKVVKRIYPHINVLMLTTFEDDDYIIESLVGGANGFLLKDLNYDQLIYSIRQSVDGQMLIPNSIAVKLAKQLSKYNELTEVDLQIEKLKKEGLHFSERERQIASLLAQGLTNKKIAEKLYITEGTVKNYISEIYSKIGIRDRMQASTYLRELGINDEGHHHHHH”, “soluble”.
On to “MMRPDAKVEKVYLYPKPVDFRKSIDGLAALVELDIKVAVFDPVLFVFLNRHRNRVKILYWERNGFCLWLKRLESERFKTSPDETDEAIVLTVQELNWLLDGFDLWRNRPHKVLTPRFVA”, for which the “soluble on expression in E. coli” value is listed as “not soluble”.
With “KRLQQKIEKGELDRMPEVKEADIECCGQHEVCEKDSLLAAVSKKIEYYDDEELDQFIGKEANAYTDEETNQFRDVLYTMQDIDVAGWVRSLQLRGIELPDDLKDEVFLIIGERRNG”, the “soluble on expression in E. coli” value is “soluble”.
With “GLVPRGSHMYAELSPGTKKVYTQVRYLDDYHWEIEGSTITGIHKKSNVKVVIDVAKNREEADSLAGKDVNGIHIVAIPDNGVFYIKNGSFVLTYRYLKATLADINDHIVWSGFKVVEDNGKLVQEDVYEYLGAALVNHIKNNALAGQDYIFWQFYKCEECGKYVDIENLEAHLREHGIKLHEKSEEHYEVFELNFREGKVFDKFGGEVPMDKFSSEAREFIKEVLS”, the “soluble on expression in E. coli” value is listed as “soluble”.
Consider “MGEISLGEVFHLKSGKYLKADERFEDGKFPYYGAGIESTSFVNEPNTKGDTLSMIANGYSIGNIRYHTIPWFNGTGGIAMEALKPNKTYVPFFYCALKYMQKDLKERFKRDESPFISLKLAGEIKVPFVKSFALQRKAGKIIYLLDK”, for which the “soluble on expression in E. coli” value is listed as “not soluble”.
Turning to “MASSTSLAIVLHQSSNHDELFMKQTLQFSETLKDLKNLRKQLYSAAEYFETSYGKAEHKETVIETLKEYAAKAVVNTVDHLGSVSDKFNSFLSDNSTHFSTTHLRLSSLEQRMRLCRDYMGKSGTHQHLLLFQYPRHHKRYFFPQQGRGTSFSAGDDSHRFTSAVRSTILENLPNTARKANKTGSFSFAPIVHNNINNRTPNKRSNSPMRFPLLRSGSLLKRSSSPSQPKKPPLALPEPQRAISVSRNTEIVEIKQSSSRKGKKILMFKALMSMSKSRN”, the “soluble on expression in E. coli” value is “soluble”.
“AIAETGGGAPLTKSSEAVEGDFVEDRLRGNEAFRRGNYEAAASYYSEALEKIRLAKTELPTQDRYPWSLEEVLIRCNRALVFLRLASAAALPNVGSNRFEEDACTAEHESEEATPCSLWQRAAEDASVALDLITDFEDEGESERVTELRVKALYRRMVANKGQNNFADAAKDAEALAKIRPEYRSEAELLAQRAAAESERAKQEALQKLKEVGNSFLSLFGVSIDNFQTKRNPDGTYSVSYCPKS”: the “soluble on expression in E. coli” value is on record as “soluble”.
As for “MGHHHHHHSHEKMNGSHRDQGSSALSGVGGIRLPNGKLKCDICGIICIGPNVLMVHKRSHTGERPFQCNQCGASFTQKGNLLRHIKLHSGEKPFKCHLCNYACRRRDALTGHLRTHSVGKPHKCGYCGRSYKQRSSLEEHKERCHNYLESMGLPGTLYPVIKEETNHSEMAEDLCKIGSERSLVLDRLASNVAKRKSSMP”, the “soluble on expression in E. coli” value is on record as “soluble”.
As to “VRMILDTIPKKNRHLVTTHDGYSYLGDAYGLSIAGFVSPNPSVEPSPRDIIALTRTLENLHVPAVFIEPQLALRANHLTVTADKLGIQVCRIYGDSLDDEVPTYLDFMKYNAHSLARCLGQSEGK”, the “soluble on expression in E. coli” value is on record as “not soluble”.
